Among the data in PMC12554172, “Systematic analysis of the RGS2 degron reveals characteristics of substrate recognition by the F-box protein FBXO44” (The Journal of Biological Chemistry, 2025) are Kd values, retold here.

The assay has as its target RGS2^5–16 peptide (RGS2 degron, Met^5–Met^16). Nature of the assay: SPR; Biacore X100; RGS2^5–16 peptide amine-coupled to a CM5 chip (2498 RU), blank reference cell; FBXO44^FBA as analyte, 0.29 to 75 μM, contact time 60 s, regeneration 50 mM NaOH; RU at equilibrium, nonlinear fit of saturation binding; SEC/SPR buffer 20 mM Tris–HCl pH 7.2, 200 mM NaCl. (In general: Surface plasmon resonance follows binding to a sensor surface in real time, without labels.)

B1: FLAG-tagged FBXO44 FBA domain (FBXO44^FBA) (domain or fragment)
chain: FYFLRSLHRNLLHNPCAEEGFEFWSLDVNGGDEWKVEDLSRDQRKEFPNDQVKKYFVTSYYTCLKSQVVDLKAEGYWEELMDTTRPDIEVKDWFAARPDCGSKYQLCVQLLSSAHAPLGTFQPDPATIQQKSDAKWREVSHTFSNYPPGVRYIWFQHGGVDTHYWAGWYGPRVTNSSITIGP
The Kd is the concentration at which binding is half-saturated. In turn, B1 came in with a dissociation constant (Kd) of 2.1 µM.
